According to US20240131155A1, “T CELLS FOR USE IN THERAPY” (Erasmus University Medical Center Rotterdam, priority 2021, published 2024):
Values belong to the binder of their own block, whether it stands above or below them.

Assays:
[1] = molecular target: T1, HLA-A2 (HLA-A2:01) on T2 cells (human); experiment: HLA-A2 stabilization assay on T2 cells (anti-HLA-A2-PE, flow cytometry), single peptide concentration 25 ug/mL [panel E]
T1 construct: detected with anti-HLA-A2 mAb BB7.2

[2] = molecular target: T1, HLA-A2 (HLA-A2:01) on T2 cells; experiment: HLA-A2 stabilization assay on T2 cells, peptide titration; amplitude relative to that of reference peptide YLE; EC50 cell is 'x' [panel D]
[3] = molecular target: T1, HLA-A2 (HLA-A2:01) on T2 cells; experiment: HLA-A2 stabilization assay on T2 cells (anti-HLA-A2-PE, flow cytometry), single peptide concentration [panel D]
[4] = molecular target: T1, HLA-A2 (HLA-A2:01) on T2 cells; experiment: HLA-A2 stabilization assay on T2 cells, peptide titration; EC50 calculated with GraphPad [panel D]
[5] = molecular target: T1, HLA-A2 (HLA-A2:01) on T2 cells; experiment: HLA-A2 stabilization assay on T2 cells, peptide titration; amplitude relative to that of reference peptide YLE [panel D]
[6] = molecular target: T1, HLA-A2 (HLA-A2:01) on T2 cells; experiment: HLA-A2 stabilization assay on T2 cells, peptide titration; amplitude = highest data point corrected for baseline [panel E]
[7] = molecular target: T1, HLA-A2 (HLA-A2:01) on T2 cells; experiment: HLA-A2 stabilization assay on T2 cells, peptide titration; EC50 calculated with GraphPad [panel E]
[8] = molecular target: MLN epitope (…) presented by HLA-A2 on cells (human); experiment: cell-based or functional assay
[9] = molecular target: T1, HLA-A2 (HLA-A2:01) on T2 cells; experiment: HLA-A2 stabilization assay on T2 cells (anti-HLA-A2-PE, flow cytometry), single peptide concentration [panel C; D00007 Figure 3 continued, panel E]
[10] = molecular target: T2, gp100 peptide on HLA-A*02:01 (human); experiment: cytokine release
T2 peptide: YLEPGPVTA

[11] = molecular target: T3, ROPN1B epitope 1 (MLN) with alanine at position 6 peptide on HLA-A*02:01 (human); experiment: cytokine release
T3 peptide: MLNYIAQEV

[12] = molecular target: T4, ROPN1B epitope 1 (MLN) with alanine at position 9 peptide on HLA-A*02:01 (human); experiment: cytokine release
T4 peptide: MLNYIEQEA

[13] = molecular target: T5, ROPN1 (counterpart of the ROPN1B MLN epitope, one residue different) peptide on HLA-A*02:01 (human); experiment: cytokine release
T5 peptide: MLNYMEQEV

[14] = molecular target: T6, ROPN1B epitope 1 (MLN) with alanine at position 8 peptide on HLA-A*02:01 (human); experiment: cytokine release
T6 peptide: MLNYIEQAV

[15] = molecular target: T7, ROPN1B peptide on HLA-A*02:01 (human); experiment: multimer staining
T7 peptide: MLNYIEQEV

Binder: SLLMWITQV (also called NY-ESO peptide SLL) [NY-ESO1 peptide SLLMWITQV]
- EC50 [4]: 5.08 µM
- Amplitude [5]: 0.93 relative to YLE
- Amplitude [6]: 4220 geometric mean normalized to baseline
- EC50 [7]: 5.08 µM

B1: MLN-TCR2 (epitope 1 (MLN)-specific TCR) (TCR, V domains shown)
V domain 1: RGEDVEQSLFLSVREGDSSVINCTYTDSSSTYLYWYKQEPGAGLQLLTYIFSNMDMKQDQRLTVLLNKKDKHLSLRIADTQTGDSAIYFCAEDGGGSYIPTFGRGTSLIVHP
V domain 2: EAGVTQFPSHSVIEKGQTVTLRCDPISGHDNLYWYRRVMGKEIKFLLHFVKESKQDESGMPNNRFLAERTGGTYSTLKVQPAELEDSGVYFCASSPGPGQNSPLHFGNGTRLTVTE
- EC50 of T cell IFN-gamma production, peptide titration on BSM cells [8]: 0.011 µM

Binder: RLIIRAEEL (ROPN1 and ROPN1B, predicted)
- Minimum stability [1]: 0.91 fold change over baseline
- binding result [9]: no binding (tested: 25 ug/mL)
- Minimum stability [3]: 0.91 fold change over baseline

Next, values leading:

- Minimum stability [1]: 1.16 fold change over baseline
- Amplitude [2]: 0.939 relative to YLE
- Minimum stability [3]: 1.41 fold change over baseline
Binder: YIAEVDGEI (ROPN1B, predicted)

- binding result [10]: no recognition
- binding result [11]: recognises
- binding result [12]: recognises
- binding result [13]: no recognition
- binding result [14]: recognises
- binding result [15]: recognises
B2: MLN-TCR2 (TCR, V domains shown)
Valpha: GEDVEQSLFLSVREGDSSVINCTYTDSSSTYLYWYKQEPGAGLQLLTYIFSNMDMKQDQRLTVLLNKKDKHLSLRIADTQTGDSAIYFCAEDGGGSYIPTFGRGTSLIVHP
Vbeta: EAGVTQFPSHSVIEKGQTVTLRCDPISGHDNLYWYRRVMGKEIKFLLHFVKESKQDESGMPNNRFLAERTGGTYSTLKVQPAELEDSGVYFCASSPGPGQNSPLHFGNGTRLTVT
